The record followed here is publication PMC1919486.

For the series, the target named is T1, hSMUG1 WT (Homo sapiens, UniProt Q53HV7 1-270).
T1 sequence: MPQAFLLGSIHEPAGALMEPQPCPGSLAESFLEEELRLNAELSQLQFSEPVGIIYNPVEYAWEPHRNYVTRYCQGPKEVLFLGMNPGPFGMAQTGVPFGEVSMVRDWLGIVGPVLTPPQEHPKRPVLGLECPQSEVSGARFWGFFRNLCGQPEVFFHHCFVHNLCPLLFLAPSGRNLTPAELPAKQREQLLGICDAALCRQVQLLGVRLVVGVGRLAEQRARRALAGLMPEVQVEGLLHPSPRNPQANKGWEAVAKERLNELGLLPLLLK
Nature of the series: EMSA. In general terms: A gel shift assay detects complexes by their altered migration in electrophoresis.

B1: T:A (T141A) (dsDNA)
DNA 1: CATAAAGTGTAAAGCCTGG
DNA 2: CCAGGCTTTACACTTTATG
With B1, the binding result is “no binding”.
